Data taken from patent US20190390248.
Like-named read-outs stand apart in the source and are kept apart here.

Molecular target: human prothrombin, P00734
[1] = scale: nmol thrombin/mL/min/µmol prothrombin/µmol activator

| Protein | N-terminal sequencing of SDS-PAGE bands | percent of S-2238 hydrolysed by the thrombin formed | Thrombin generation rate [1] | Thrombin generation rate | fold more effective than carinactivase-1 (activation rate constants) | fold more effective than carinactivase-2 (activation rate constants) | fold more effective than ecarin (activation rate constants) | fold more effective than notecarin (activation rate constants) |
| --- | --- | --- | --- | --- | --- | --- | --- | --- |
| notecarin from Notechis scutatus venom (protein) SNSLFEEIRPGNIERECIEEKCSKEEAREVFEDNEKTETFWNVYVDGDQCSSNPCHYRGTCKDGIGSYTCTCLPNYEGKNCEKVLFKSCRAFNGNCWHFCKRVQSETQCSCAESYLLGVDGHSCVAEGDFSCGRNIKARNKREASLPDFVQSQKATVLKKSDNPSPDIRIVNGMDCKLGECPWQAVLINEKGEVFCGGTILSPIHVLTAAHCINQTKSVSVIVGEIDISRKETRRLLSVDKIYVHKKFVPPNSYYQNIDRFAYDYDIAIIRMKTPIQFSENVVPACLPTADFAKEVLMKQDSGIVSGFGRTQSIGYTSNILKVITVPYVDRHTCMLSSNFRITQNMFCAGYDTLPQDACQGDSGGPHITAYGDTHFVTGIISWGEGCARKGKYGVYTKVSNFIPWIKKIMSLK | confirmed conversion of prothrombin to alpha-thrombin by PtPA and notecarin | then carinactivase-1 and lastly notecarin (<1%) being the least efficient | 0.043 | – | – | – | – | – |
| ecarin from Echis carinatus venom (protein) IILGSGNVNDYEVVYPQKVTALPKGAVQQPEQKYEDAMQYEFEVKGEPVVHLEKNKELFSEDYSETHYSSDDREITTNPSVEDHCYYHGRIQNDAESTASISACNGLKGHFKLRGETYFIEPLKIPDSEHAVYKYENIENEDEAPKMCGVTQDNWESDEPIKKTLGLIVPPHERKFEKKFIELVVVVDHSMVTKYNNDSTAIRTWIYELNTVNEIYLPFNIRVALVGLEFWCNGDLINVTSTADDTLHSFGEWRASDLLNRKRHDHAQLLTNVTLDHSTLGITFVYGCKSDRSVELILDYSNITFNMAYIIAHEMGHSLGMLHDTKFCTCGAKPCIMFGKESIPPPKEFSSCSYDQYNKYLLKYNPCILDPPLRKDIASPAVCGNEIWEEGEECDCGSPADCRNPCCDAATCKLKPGAECGNGECCDKCKIRKAGTECRPARDDCVAEHCTGQSAECPRNEFQRNGQPCLNNSGYCYNGDCPIMLNQCIALFSPSATVAQDSCFQRNLQGSYYGYCTKEIGYYGRFPCAPQDVKCGRLYCLDNSFKKNMRCKNDYSYADENKGIVEPGTKCEDGKVCINRKCVDVNTAY | – | – | – | 2.76 | – | – | – | – |
| OsPA (prothrombin activator purified from Oxyuranus scutellatus venom) (protein) chain 1: AQLREYRLAAQLEDWDYNPQPEELSRLSESDLTFKKIVYREYELDFKQEKPRDELSGLLGPTLRGEVGDSLIIYFKNFATQPVSIHPQSAVYNKWSEGSSYSDGTSDVERLDDAVPPGQSFKYVWNITAEIGPKKADPPCLTYAYYSHVNMVRDFNSGLIGALLICKEGSLNADGAQKFFNREYVLMFSVFDESKNWYRKPSLQYTINGFANGTLPDVQACAYDHISWHLIGMSSSPEIFSVHFNGQTLEQNHYKVSTINLVGGASVTANMSVSRTGKWLISSLVAKHLQAGMYGYLNIKDCGNPDTLTRKLSFRERRRIMKWEYFIAAEEITWDYAPEIPSSVDRRYKAQYLDNFSNFIGKKYKKAVFRQYEDSNFTKPTYAIWPKERGILGPVIKAKVRDTVTIVFKNLASRPYSIYVHGVSVSKDAEGAVYPSDPKENITHGKAVEPGQVYTYKWTVLDTDEPTVKDSECITKLYHSAVDMTRDIASGLIGPPLVCKRKALSIRGVQNKADVEQHAVFAVFDENKSWYLEDNIKKYCSNPSSVKKDDPKFYKSNVMYTLNGYASDRTEVWGFHQSEVVEWHLTSVGTVDEIVPVHLSGHTFLSKGKHQDILNLFPMSGESATVTMDNLGTWLLSSWGSCEMSNGMRLRFLDANYDDEDEGNEEEEEDDGDIFADIFNPPEVVIKKEEVPVNFVPDPESDALAKELGLFDDEDNPKQSRSEQTEDDEEQLMIASMLGLRSFKGSVAEEELKHTALALEEDAHASDPRIDSNSAHNSDDIAGRYLRTINRRNKRRYYIAAEEVLWDYSPIGKSQVRSLPAKTTFKKAIFRSYLDDTFQTPSTGGEYEKHLGILGPIIRAEVDDVIEVQFRNLASRPYSLHAHGLLYEKSSEGRSYDDNSPELFKKDDAIMPNGTYTYVWQVPPRSGPTDNTEKCKSWAYYSGVNPEKDIHSGLIGPILICQKGMIDKYNRTIDIREFVLFFMVFDEEKSWYFPKSDKSTCEEKLIGVQSRHTFPAINGIPYQLQGLMMYKDENVHWHLLNMGGPKDVHVVNFHGQTFTEEGREDNQLGVLPLLPGTFASIKMKPSKIGTWLLETEVGENQERGMQALFTVIDKDCKLPMGLASGIIQDSQISASGHVGYWEPKLARLNNTGMFNAWSIIKKEHEHPWIQIDLQRQVVITGIQTQGTVQLLKHSYTVEYFVTYSKDGQNWITFKGRHSKTQMHFEGNSDGTTVKENHIDPPIIARYIRLHPTKFYNTPTFRIELLGCEVEGCSVPLGMESGAIKDSEITASSYKKTWWSSWEPFLARLNLKGRTNAWQPKVNNKDQWLQIDLQHLTKITSIITQGATSMTTSMYVKTFSIHYTDDNSTWKPYLDVRTSMEKVFTGNINSDGHVKHFFNPPILSRFIRIIPKTWNQYIALRIELFGCEVF chain 2: ANSLYEEFRSGNIERECIEERCSKEEAREVFEDDEKTETFWNVYVDGDQCSSNPCHYRGTCKDGIGSYTCTCLSGYEGKNCERVLYKSCRVDNGNCWHFCKPVQNDIQCSCAEGYLLGEDGHSCVAGGNFSCGRNIKTRNKREASLPDFVQSQNAILLKKSDNPSPDIRIVNGMDCKLGECPWQAVLVDEKEDAFCGGTILSPIYVLTAAHCINQTKMISVVVGEINISRKNPGRLLSVDKIYVHQKFVPPKKGYEFYEKFDLVSYDYDIAILQMKTPIQFSENVVPACLPTADFANQVLMKQDFGIVSGFGRIFEKGPQSKTLKVLKVPYVDRHTCMLSSESPITPTMFCAGYDTLPRDACQGDSGGPHITAYRDTHFITGIVSWGEGCAQTGKYGVYTKVSKFILWIKRIMRQKLPSTESSTGRL | – | – | 44 | – | more than 200 times then carinactivase-1 | more than 20 times more effective than ecarin and carinactivase-2 | more than 20 times more effective than ecarin and carinactivase-2 | approximately 1000 times more effective than notecarin |
